According to patent publication US20220387457A1:

Substrate: CC1(C)Oc2ccc(C#N)cc2[C@@H](N2CCCC2=O)[C@@H]1OP(=O)(O)O
Test: purified protein, by the assay type
Assay type: biochemical, human
Settings: other: ALP 0.02 U/100 μL, pH 10, 37.0 °C
Protocol: To activate CKLP1, the phosphate is hydrolyzed from phosphatases to produce leveromakalim, the active moiety that can open (activate) ATP-sensitive potassium channels.
In the first experiment, a fixed concentration of CKLP1 solution was incubated with varying concentrations of placenta-derived human alkaline phosphatase. To accomplish this, placenta-derived human alkaline phosphatase (0.0002 U) in a 100-μL volume was added to each of thirteen 1.5-mL tubes. To each tube, CKLP1 was then added at a fixed concentration [10 mM (0.4%)]. Tubes were inverted twice and incubated in a water bath at 37° C. At each of 13 different time points (0, 1, 2.5, 5, 15, and 30 minutes and at 1, 2, 4, 8, 24, 48, and 72 hours), a single tube was removed, and the reaction was stopped by the addition of 2 volumes (200 μL) of acetonitrile. Samples were stored at −80° C. The experiment was repeated with 10 mM CKLP1 (0.4%) in the presence of placenta-derived human alkaline phosphatase at concentrations of 0.002 U, 0.02 U, and 0.2 U. All assays were performed at pH 10.
In a second experiment, a fixed concentration of placenta-derived human alkaline phosphatase was incubated with varying concentrations of CKLP1. To accomplish this, a fixed concentration of 0.02 U of placenta-derived human alkaline phosphatase in a 100-μL volume was added to each of thirteen 1.5-mL tubes. […]

B1: placenta-derived human alkaline phosphatase (Homo sapiens) (protein)
chain: IIPVEEENPDFWNREAAEALGAAKKLQPAQTAAKNLIIFLGDGMGVSTVTAARILKGQKKDKLGPEIPLAMDRFPYVALSKTYNVDKHVPDSGATATAYLCGVKGNFQTIGLSAAARFNQCNTTRGNEVISVMNRAKKAGKSVGVVTTTRVQHASPAGTYAHTVNRNWYSDADVPASARQEGCQDIATQLISNMDIDVILGGGRKYMFRMGTPDPEYPDDYSQGGTRLDGKNLVQEWLAKRQGARYVWNRTELMQASLDPSVTHLMGLFEPGDMKYEIHRDSTLDPSLMEMTEAALRLLSRNPRGFFLFVEGGRIDHGHHESRAYRALTETIMFDDAIERAGQLTSEEDTLSLVTADHSHVFSFGGYPLRGSSIFGLAPGKARDRKAYTVLLYGNGPGYVLKDGARPDVTESESGSPEYRQQSAVPLDEETHAGEDVAVFARGPQAHLVHGVQEQTFIAHVMAFAACLEPYTACDLAPPAGTTD
notes: varying concentrations of placenta-derived human alkaline phosphatase; from tissue; host or cells: human placenta
Q: With B1 as the protein, how does the Km read?
A: Its Km is 399 µM.
